Experimental data reported in patent US20250289893A1 (OXFORD UNIVERSITY INNOVATION, published 2025).
Blank lines part the entries; values can stand above or below the molecule they belong to.

Legend:
[1] = molecular target: T1, human CD1a expressed on cells (human, UniProt P06126 17-327; P61769 21-119); experiment: flow cytometry of ear skin cells of CD1a transgenic mice given isotype control (CD1a : iso), stained with SK9; gated population not named on the sheet; no percent sign printed
T1 construct: also called HEK - CD1a; C1R - CD1a

[2] = molecular target: T1, human CD1a expressed on cells; experiment: flow cytometry of ear skin cells of CD1a transgenic mice given antibody 116 100 µg i.p. on days 0, 2, 4 (CD1a : OX116), stained with SK9 on day 5; no percent sign printed
[3] = molecular target: T1, human CD1a expressed on cells; experiment: flow cytometry of ear skin cells of CD1a transgenic mice given antibody 116 100 µg i.p. on days 0, 2, 4 (CD1a : OX116), stained with HI149 on day 5; the cloud lies on the lower edge of the gate; no percent sign printed
[4] = molecular target: T1, human CD1a expressed on cells; experiment: flow cytometry of ear skin cells of CD1a transgenic mice given isotype control (CD1a : iso), stained with HI149; gated population not named on the sheet; no percent sign printed
[5] = molecular target: chimeric CD1a pool B protein [human CD1a lipid binding domain, mouse CD1d Ig domain] (human; mouse) (UniProt P06126); experiment: ELISA, 100 µg/ml antibody
Chain of chimeric CD1a pool B protein [human CD1a lipid binding domain, mouse CD1d Ig domain] (human; mouse) (P06126 other isoform, or with tags, fused parts or gaps mutant limits assumed): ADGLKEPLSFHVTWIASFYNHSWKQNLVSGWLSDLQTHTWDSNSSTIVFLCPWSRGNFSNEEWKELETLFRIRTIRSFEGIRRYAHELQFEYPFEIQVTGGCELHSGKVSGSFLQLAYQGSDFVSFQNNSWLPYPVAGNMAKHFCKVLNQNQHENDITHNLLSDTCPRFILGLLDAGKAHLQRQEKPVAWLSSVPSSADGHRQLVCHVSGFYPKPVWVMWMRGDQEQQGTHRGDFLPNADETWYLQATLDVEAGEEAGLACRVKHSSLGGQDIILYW

[6] = molecular target: Chinese variant CD1a protein (human) (UniProt P06126); experiment: ELISA, 0.01 µg/ml antibody
Chain of Chinese variant CD1a protein (human) (P06126 18-295, stated change not applied): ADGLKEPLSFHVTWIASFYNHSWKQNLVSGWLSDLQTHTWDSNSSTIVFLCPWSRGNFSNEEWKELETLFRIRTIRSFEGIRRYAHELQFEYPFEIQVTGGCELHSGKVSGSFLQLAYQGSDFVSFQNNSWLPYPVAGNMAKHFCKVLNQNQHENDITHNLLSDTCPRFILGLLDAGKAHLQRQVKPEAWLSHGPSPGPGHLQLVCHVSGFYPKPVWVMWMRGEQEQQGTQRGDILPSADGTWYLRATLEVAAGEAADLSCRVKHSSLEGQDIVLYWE

[7] = molecular target: T2, human CD1a protein (pool B) (human, UniProt P06126 18-295, limits assumed); experiment: ELISA, 10 µg/ml antibody
T2 construct: Recombinant protein of the ELISA (coated) and the Biacore T200 titration; whole entry named; also called human CD1a pool B; full length CD1a
T2 sequence (P06126 18-295 limits assumed): as the sequence (P06126 18-295, stated change not applied) above

[8] = molecular target: T2, human CD1a protein (pool B); experiment: ELISA, 100 µg/ml antibody
[9] = molecular target: T3, Cynomolgus monkey CD1a protein (Cynomolgus monkey); experiment: ELISA, 10 µg/ml antibody
T3 chain: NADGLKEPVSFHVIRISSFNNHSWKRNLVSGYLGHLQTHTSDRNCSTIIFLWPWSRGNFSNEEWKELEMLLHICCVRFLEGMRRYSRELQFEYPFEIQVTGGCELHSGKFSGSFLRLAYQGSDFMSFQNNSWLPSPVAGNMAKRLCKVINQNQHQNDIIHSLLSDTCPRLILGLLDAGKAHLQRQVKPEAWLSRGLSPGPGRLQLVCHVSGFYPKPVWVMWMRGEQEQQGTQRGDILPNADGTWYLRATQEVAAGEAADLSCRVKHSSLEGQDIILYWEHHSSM

[10] = molecular target: T2, human CD1a protein (pool B); experiment: ELISA, 0.316 µg/ml antibody
[11] = molecular target: T3, Cynomolgus monkey CD1a protein; experiment: ELISA, 1 µg/ml antibody
[12] = molecular target: chimeric CD1a pool B protein [human CD1a lipid binding domain, mouse CD1d Ig domain] (human; mouse) (UniProt P06126); experiment: ELISA, 3.16 µg/ml antibody
[13] = molecular target: T2, human CD1a protein (pool B); experiment: ELISA, 3.16 µg/ml antibody
[14] = molecular target: Chinese variant CD1a protein (human) (UniProt P06126); experiment: ELISA, 0.1 µg/ml antibody
[15] = molecular target: chimeric CD1a pool B protein [human CD1a lipid binding domain, mouse CD1d Ig domain] (human; mouse) (UniProt P06126); experiment: ELISA, 0.1 µg/ml antibody
[16] = molecular target: Chinese variant CD1a protein (human) (UniProt P06126); experiment: ELISA, 10 µg/ml antibody
[17] = molecular target: chimeric CD1a pool B protein [human CD1a lipid binding domain, mouse CD1d Ig domain] (human; mouse) (UniProt P06126); experiment: ELISA, 10 µg/ml antibody
[18] = molecular target: T2, human CD1a protein (pool B); experiment: ELISA, 1 µg/ml antibody
[19] = molecular target: chimeric CD1a pool B protein [human CD1a lipid binding domain, mouse CD1d Ig domain] (human; mouse) (UniProt P06126); experiment: ELISA, 0.316 µg/ml antibody
[20] = molecular target: T2, human CD1a protein (pool B); experiment: ELISA, 0.0316 µg/ml antibody
[21] = molecular target: chimeric CD1a pool B protein [human CD1a lipid binding domain, mouse CD1d Ig domain] (human; mouse) (UniProt P06126); experiment: ELISA, 0.0316 µg/ml antibody
[22] = molecular target: T3, Cynomolgus monkey CD1a protein; experiment: ELISA, 0.01 µg/ml antibody
[23] = molecular target: Chinese variant CD1a protein (human) (UniProt P06126); experiment: ELISA, 1 µg/ml antibody
[24] = molecular target: chimeric CD1a pool B protein [human CD1a lipid binding domain, mouse CD1d Ig domain] (human; mouse) (UniProt P06126); experiment: ELISA, 1 µg/ml antibody
[25] = molecular target: T3, Cynomolgus monkey CD1a protein; experiment: ELISA, 0.1 µg/ml antibody
[26] = molecular target: chimeric CD1a pool B protein [human CD1a lipid binding domain, mouse CD1d Ig domain] (human; mouse) (UniProt P06126); experiment: ELISA, 31.6 µg/ml antibody
[27] = molecular target: T2, human CD1a protein (pool B); experiment: ELISA, 31.6 µg/ml antibody
[28] = molecular target: T2, human CD1a protein (pool B); experiment: ELISA, 0.1 µg/ml antibody
[29] = molecular target: T4, Human CD1a/β2m heterodimer (soluble, de-glycosylated) (human, UniProt P61769 21-119); experiment: SPR, OX116-scFv immobilised, CD1a-LPC (lysophosphatidylcholine) injected up to 1000 nM; 1:1 specific binding fit; row printed as Kd, unit nM from the legend paragraph 90
T4 construct: Expressed in HEK293S cells with fos-jun zippers, BirA tag and His-tag, which were cleaved off with thrombin; deglycosylated with EndoH; Carries endogenous lipids or a loaded lipid (named under assay); also called CD1a-endo; CD1a-sphingomyelin

[30] = molecular target: T4, Human CD1a/β2m heterodimer (soluble, …); experiment: SPR, OX116-scFv immobilised, CD1a-GD3 (GD3 ganglioside) injected up to 1000 nM; 1:1 specific binding fit; row printed as Kd, unit nM from the legend paragraph 90
[31] = molecular target: T4, Human CD1a/β2m heterodimer (soluble, …); experiment: SPR, OX116-scFv immobilised on streptavidin chip, CD1a-endo (endogenous lipids) injected up to 1000 nM; 1:1 specific binding fit of response against concentration; row printed as Kd, unit nM from the legend paragraph 90
[32] = molecular target: T4, Human CD1a/β2m heterodimer (soluble, …); experiment: SPR, OX116-scFv immobilised, CD1a-SM24:1 (sphingomyelin) injected up to 1000 nM; 1:1 specific binding fit; row printed as Kd, unit nM from the legend paragraph 90
[33] = molecular target: T2, human CD1a protein (pool B); experiment: Biacore, column KD1 of the heterogeneous ligand model; no unit on the sheet or in the legend, M taken from Table 10 of the same Biacore method
[34] = molecular target: chimeric CD1a pool B protein [human CD1a lipid binding domain, mouse CD1d Ig domain] (human; mouse) (UniProt P06126); experiment: ELISA on chimeric CD1a (human alpha 1 and alpha 2 domains, murine CD1d alpha 3 domain), size exclusion pool B; antibody concentration not given
[35] = molecular target: T2, human CD1a protein (pool B); experiment: Biacore, column KD2 of the heterogeneous ligand model; no unit on the sheet or in the legend, M taken from Table 10 of the same Biacore method
[36] = molecular target: Chinese variant CD1a protein (human) (UniProt P06126); experiment: ELISA on coated minor CD1A variant protein; antibody concentration not given
[37] = molecular target: T4, Human CD1a/β2m heterodimer (soluble, …); experiment: SPR, OX16-scFv immobilised on streptavidin chip, CD1a-endo (endogenous lipids) injected up to 1000 nM; 1:1 specific binding fit of response against concentration; row printed as Kd, unit nM from the legend paragraph 90
[38] = molecular target: T4, Human CD1a/β2m heterodimer (soluble, …); experiment: SPR, OX16-scFv immobilised, CD1a-LPC (lysophosphatidylcholine) injected up to 1000 nM; 1:1 specific binding fit; row printed as Kd, unit nM from the legend paragraph 90
[39] = molecular target: T4, Human CD1a/β2m heterodimer (soluble, …); experiment: SPR, OX16-scFv immobilised, CD1a-SM24:1 (sphingomyelin) injected up to 1000 nM; 1:1 specific binding fit; row printed as Kd, unit nM from the legend paragraph 90
[40] = molecular target: T4, Human CD1a/β2m heterodimer (soluble, …); experiment: SPR, OX16-scFv immobilised, CD1a-GD3 (GD3 ganglioside) injected up to 1000 nM; 1:1 specific binding fit; row printed as Kd, unit nM from the legend paragraph 90

CD1a+ (gate frequency) [1]: 84.9%
CD1a+ (gate frequency) [2]: 87.4%
Molecule: SK9 (antibody)

CD1a+ (gate frequency) [3]: 46.6%
CD1a+ (gate frequency) [4]: 82.2%
Molecule: HI149 (antibody)

Optical Density (OD) [5]: 0.08 OD
Optical Density (OD) [6]: 0.08 OD
Optical Density (OD) [7]: 0.07 OD
Optical Density (OD) [8]: 0.07 OD
Optical Density (OD) [9]: 0.09 OD
Optical Density (OD) [10]: 0.07 OD
Optical Density (OD) [11]: 0.07 OD
Optical Density (OD) [12]: 0.1 OD
Optical Density (OD) [13]: 0.06 OD
Optical Density (OD) [14]: 0.08 OD
Optical Density (OD) [15]: 0.08 OD
Optical Density (OD) [16]: 0.14 OD
Optical Density (OD) [17]: 0.08 OD
Optical Density (OD) [18]: 0.07 OD
Optical Density (OD) [19]: 0.09 OD
Optical Density (OD) [20]: 0.06 OD
Optical Density (OD) [21]: 0.09 OD
Optical Density (OD) [22]: 0.06 OD
Optical Density (OD) [23]: 0.08 OD
Optical Density (OD) [24]: 0.09 OD
Optical Density (OD) [25]: 0.07 OD
Optical Density (OD) [26]: 0.08 OD
Optical Density (OD) [27]: 0.06 OD
Optical Density (OD) [28]: 0.06 OD
Molecule: control rabbit IgG antibody

Kd [29]: 1.52 µM
Kd [30]: 0.329 µM
Kd [31]: 0.483 µM
Kd [32]: 0.529 µM
B1: OX116 scFv (scFv)
scFv: DAQSVEESGGRLVTPGTPLTLTCTVSGFSLSNYAMSWVRQAPGKGLEWIGIIYTTGFTYYASWVKGRFTISKTSTTVDLKITSPTTEDTATYFCARGLATYVSPPTRLDLWGQGTLVTVSSGGGGSGGGGSGGGGSAQVLTQTPSPVSAAVGGTVTINCQASQSIYNSKNLAWYQQKPGQPPKLLIYSASTLASGVPSRFKGSGSGTQFTLTISDLESDDAATYYCQGEFSCSSVDCATFGGGTEVVVKSGLEVLFQGPGSGLNDIFEAQKIEWHEHHHHHH
notes: SPR: biotinylated on the C-terminal tag and coupled to streptavidin; Crystals: tags cleaved off with 3C protease; also called OX116 Ab fragment

Kd [33]: 0.015 µM
optical density (ELISA) [34]: 0.11
Kd [35]: 0.0021 µM
optical density (ELISA) [36]: 0.736
B2: OX25 (antibody, V domains shown)
VH: QVQLQQSGPGLVAPSQSLFITCTVSGFSLTTYEINWVRQPPGKGLEWLGVIWTGGSTNYNSALISRLSISKDNSKSLVFLKMNSLQTDDTAIYYCVRTLPYYYAMDYWGQGTSVTVSS
VL: EIVLTQSPALMAASPGEKVTITCSVSSSISSSNLHWYQQKSGTSPKPWIYGTSNLASGVPVRFSGSGSGTSYSLTISSMEAEDAATYYCQQWSSYPPTFGSGTKLEIK
notes: also called antibody 25; Ab 25

Kd [37]: 0.476 µM
Kd [38]: 1.01 µM
Kd [39]: 0.86 µM
Kd [40]: 1.27 µM
B3: OX16 scFv (scFv)
scFv: DAEVQLVESGGGLVKPGGSLKLSCAASGFTFSNYAMSWVRQTPEKRLEWVAAINSNGGSAYYPDTVKDRFTISRDNAKNTLYLQMSSLRSEDTALYYCARRFYYDYGWFAYWGQGTLVTVSSGGGGSGGGGSGGGGSDIVLTQSPASLSASVGETVTITCRASENIDSYLAWYQQKQGKSPQLLVYAATLLADGVPSRFSGSGSGTQYSLKINSLQSEDVARYYCQHYYSSPWTFGGGTKLEIKSGLEVLFQGPGSGLNDIFEAQKIEWHEHHHHHH
notes: SPR: biotinylated on the C-terminal tag and coupled to streptavidin; Crystals: BirA and His-tag cleaved off with 3C protease; also called 16 ScFv full; single chain variable construct of OX16
